Data on nine molecules can be found in patent publication US11827699 (dated 2023).

Experiment in all cases: SPR
One test deals with T1, human FcγRIIa R131 (human, UniProt P12318).
T1 chain: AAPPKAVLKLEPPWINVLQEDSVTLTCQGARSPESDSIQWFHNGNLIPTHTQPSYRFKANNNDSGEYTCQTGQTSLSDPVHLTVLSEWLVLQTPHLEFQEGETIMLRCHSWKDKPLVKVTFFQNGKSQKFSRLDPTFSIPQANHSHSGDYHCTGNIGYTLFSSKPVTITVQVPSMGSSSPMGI

The next test has as its target human FcγRIIIa V158 (human, UniProt P08637).
In the next test the target is T2, human FcγRIa (human, UniProt P12314).
T2 chain: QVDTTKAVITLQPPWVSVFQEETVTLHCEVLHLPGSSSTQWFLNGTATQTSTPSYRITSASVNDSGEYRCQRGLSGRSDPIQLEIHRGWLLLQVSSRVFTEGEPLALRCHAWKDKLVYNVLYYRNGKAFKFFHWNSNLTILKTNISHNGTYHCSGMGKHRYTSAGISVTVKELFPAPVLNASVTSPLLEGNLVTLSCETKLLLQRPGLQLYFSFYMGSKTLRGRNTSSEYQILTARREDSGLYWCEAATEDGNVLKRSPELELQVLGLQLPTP

The next test has as its target T3, human FcγRIIb (human, UniProt P31994).
T3 chain: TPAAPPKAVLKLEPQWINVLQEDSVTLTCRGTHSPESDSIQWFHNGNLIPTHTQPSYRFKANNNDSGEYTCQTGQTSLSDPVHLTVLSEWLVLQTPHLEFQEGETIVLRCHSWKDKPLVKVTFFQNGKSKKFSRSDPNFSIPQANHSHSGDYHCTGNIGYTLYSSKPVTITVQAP

The target of another test is T4, human FcγRIIa H131 (human, UniProt P12318).
T4 chain: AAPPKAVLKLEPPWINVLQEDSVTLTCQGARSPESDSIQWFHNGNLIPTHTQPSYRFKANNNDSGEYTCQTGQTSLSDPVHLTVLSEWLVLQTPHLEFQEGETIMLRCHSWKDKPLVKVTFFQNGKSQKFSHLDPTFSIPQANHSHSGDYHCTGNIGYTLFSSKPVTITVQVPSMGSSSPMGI

human FcγRIIIa V158, sequence (P08637 17-208 F176V): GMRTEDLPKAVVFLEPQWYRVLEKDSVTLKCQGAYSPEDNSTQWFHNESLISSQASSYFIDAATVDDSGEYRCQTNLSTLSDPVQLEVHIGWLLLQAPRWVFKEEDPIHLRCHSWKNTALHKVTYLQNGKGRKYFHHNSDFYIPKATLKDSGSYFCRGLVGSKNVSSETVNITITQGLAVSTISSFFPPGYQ

B1: IL6R-BP484 (antibody)
chain 1: QVQLQESGPGLVKPSETLSLTCAVSGHSISHDHAWSWVRQPPGEGLEWIGFISYSGITNYNPSLQGRVTISRDNSKNTLYLQMNSLRAEDTAVYYCARSLARTTAMDYWGEGTLVTVSSASTKGPSVFPLAPSSKSTSGGTAALGCLVKDYFPEPVTVSWNSGALTSGVHTFPAVLQSSGLYSLSSVVTVPSSSLGTQTYICNVNHKPSNTKVDKKVEPKSCDKTHTCPPCPAPDLLGDDSVFLFPPKPKDTLMISRTPEVTCVVVDVAEDDGEVKFNWYVDGVEVHNAKTKPREEQYNSTYRVVSVLTVLHQDWLNGKEYKCKVSNKALPAPIEKTISKAKGQPREPQVYTLPPSRDELTKNQVSLTCLVKGFYPSDIAVEWESNGQPENNYKTTPPVLDSDGSFFLYSKLTVDKSRWQQGNVFSCSVMHEALHNHYTQESLSLSP
chain 2: not shown
In the case of B1, the Kd with human FcγRIIa R131 was determined as 780 nM; in the test with human FcγRIIIa V158 it was 25000 nM; with human FcγRIa, 0.82 nM; with human FcγRIIb, 46 nM; with human FcγRIIa H131 it was 11000 nM.

B2: IL6R-BP503 (antibody)
chain 1: QVQLQESGPGLVKPSETLSLTCAVSGHSISHDHAWSWVRQPPGEGLEWIGFISYSGITNYNPSLQGRVTISRDNSKNTLYLQMNSLRAEDTAVYYCARSLARTTAMDYWGEGTLVTVSSASTKGPSVFPLAPSSKSTSGGTAALGCLVKDYFPEPVTVSWNSGALTSGVHTFPAVLQSSGLYSLSSVVTVPSSSLGTQTYICNVNHKPSNTKVDKKVEPKSCDKTHTCPPCPAPDLLGDDSVFLFPPKPKDTLMISRTPEVTCVVIDVAEEDGEVKFNWYVDGVEVHNAKTKPREEQDNSTYRVVSVLTVLHQDWLNGKEYKCKVSNKGLPRPIEKTISKAKGQPREPQVYTLPPSRDELTKNQVSLTCLVKGFYPSDIAVEWESNGQPENNYKTTPMVLDSDGSFFLYSKLTVDKSRWQQGNVFSCSVMHEALHNHYTQESLSLSP
chain 2: not shown
With B2, the Kd was found to be 57 nM with human FcγRIIa R131; 21000 nM with human FcγRIIIa V158; 1.2 nM in the test with human FcγRIa; 1.7 nM in the test with human FcγRIIb; 860 nM in the test with human FcγRIIa H131.

B3: IL6R-BP496 (antibody)
chain 1: QVQLQESGPGLVKPSETLSLTCAVSGHSISHDHAWSWVRQPPGEGLEWIGFISYSGITNYNPSLQGRVTISRDNSKNTLYLQMNSLRAEDTAVYYCARSLARTTAMDYWGEGTLVTVSSASTKGPSVFPLAPSSKSTSGGTAALGCLVKDYFPEPVTVSWNSGALTSGVHTFPAVLQSSGLYSLSSVVTVPSSSLGTQTYICNVNHKPSNTKVDKKVEPKSCDKTHTCPPCPAPDLLGDDSVFLFPPKPKDTLMISRTPEVTCVVIDVAEEDGEVKFNWYVDGVEVHNAKTKPREEQDNSTYRVVSVLTVLHQDWLNGKEYKCKVSNKALPAPIEKTISKAKGQPREPQVYTLPPSRDELTKNQVSLTCLVKGFYPSDIAVEWESNGQPENNYKTTPPVLDSDGSFFLYSKLTVDKSRWQQGNVFSCSVMHEALHNHYTQESLSLSP
chain 2: not shown
In the case of B3, the Kd with human FcγRIIa R131 was 470 nM; in the test with human FcγRIIIa V158, 30000 nM; with human FcγRIa it was 1.2 nM; in the test with human FcγRIIb, 18 nM; in the test with human FcγRIIa H131, 3700 nM.

B4: IL6R-BP502 (antibody)
chain 1: QVQLQESGPGLVKPSETLSLTCAVSGHSISHDHAWSWVRQPPGEGLEWIGFISYSGITNYNPSLQGRVTISRDNSKNTLYLQMNSLRAEDTAVYYCARSLARTTAMDYWGEGTLVTVSSASTKGPSVFPLAPSSKSTSGGTAALGCLVKDYFPEPVTVSWNSGALTSGVHTFPAVLQSSGLYSLSSVVTVPSSSLGTQTYICNVNHKPSNTKVDKKVEPKSCDKTHTCPPCPAPDLLGDDSVFLFPPKPKDTLMISRTPEVTCVVIDVAEEDGEVKFNWYVDGVEVHNAKTKPREEQDNSTYRVVSVLTVLHQDWLNGKEYKCKVSNKGLPRPIEKTISKAKGQPREPQVYTLPPSRDELTKNQVSLTCLVKGFYPSDIAVEWESNGQPENNYKTTPPVLDSDGSFFLYSKLTVDKSRWQQGNVFSCSVMHEALHNHYTQESLSLSP
chain 2: not shown
On to B4, for which the Kd was found to be 110 nM in the test with human FcγRIIa R131; 24000 nM with human FcγRIIIa V158; 2.1 nM with human FcγRIa; 3.7 nM with human FcγRIIb; 1300 nM with human FcγRIIa H131.

B5: IL6R-BP498 (antibody)
chain 1: QVQLQESGPGLVKPSETLSLTCAVSGHSISHDHAWSWVRQPPGEGLEWIGFISYSGITNYNPSLQGRVTISRDNSKNTLYLQMNSLRAEDTAVYYCARSLARTTAMDYWGEGTLVTVSSASTKGPSVFPLAPSSKSTSGGTAALGCLVKDYFPEPVTVSWNSGALTSGVHTFPAVLQSSGLYSLSSVVTVPSSSLGTQTYICNVNHKPSNTKVDKKVEPKSCDKTHTCPPCPAPDLLGDDSVFLFPPKPKDTLMISRTPEVTCVVIDVAEEDGEVKFNWYVDGVEVHNAKTKPREEQYNSTYRVVSVLTVLHQDWLNGKEYKCKVSNKALPRPIEKTISKAKGQPREPQVYTLPPSRDELTKNQVSLTCLVKGFYPSDIAVEWESNGQPENNYKTTPLVLDSDGSFFLYSKLTVDKSRWQQGNVFSCSVMHEALHNHYTQESLSLSP
chain 2: not shown
Regarding B5, the Kd with human FcγRIIa R131 was 51 nM; with human FcγRIIIa V158 it was 10000 nM; with human FcγRIa, 1.3 nM; with human FcγRIIb, 1.7 nM; with human FcγRIIa H131, 930 nM.

B6: IL6R-BP509 (antibody)
chain 1: QVQLQESGPGLVKPSETLSLTCAVSGHSISHDHAWSWVRQPPGEGLEWIGFISYSGITNYNPSLQGRVTISRDNSKNTLYLQMNSLRAEDTAVYYCARSLARTTAMDYWGEGTLVTVSSASTKGPSVFPLAPSSKSTSGGTAALGCLVKDYFPEPVTVSWNSGALTSGVHTFPAVLQSSGLYSLSSVVTVPSSSLGTQTYICNVNHKPSNTKVDKKVEPKSCDKTHTCPPCPAPDLLGDDSVFLFPPKPKDTLMISRTPEVTCVVIDVAEEDGDVKFNWYVDGVEVHNAKTKPREEQDNSTYRVVSVLTVLHQDWLNGKEYKCKVSNKALPAPIEKTISKAKGQPREPQVYTLPPSRDELTKNQVSLTCLVKGFYPSDIAVEWESNGQPENNYKTTPPVLDSDGSFFLYSKLTVDKSRWQQGNVFSCSVMHEALHNHYTQESLSLSP
chain 2: not shown
With B6, the Kd in the test with human FcγRIIa R131 was determined as 520 nM; with human FcγRIIIa V158, 23000 nM; in the test with human FcγRIa it was 1.1 nM; in the test with human FcγRIIb, 18 nM; with human FcγRIIa H131, 7900 nM.

B7: IL6R-BP494 (antibody)
chain 1: QVQLQESGPGLVKPSETLSLTCAVSGHSISHDHAWSWVRQPPGEGLEWIGFISYSGITNYNPSLQGRVTISRDNSKNTLYLQMNSLRAEDTAVYYCARSLARTTAMDYWGEGTLVTVSSASTKGPSVFPLAPSSKSTSGGTAALGCLVKDYFPEPVTVSWNSGALTSGVHTFPAVLQSSGLYSLSSVVTVPSSSLGTQTYICNVNHKPSNTKVDKKVEPKSCDKTHTCPPCPAPELLGDDSVFLFPPKPKDTLMISRTPEVTCVVVDVAEEDGEVKFNWYVDGVEVHNAKTKPREEQDNSTYRVVSVLTVLHQDWLNGKEYKCKVSNKALPRPIEKTISKAKGQPREPQVYTLPPSRDELTKNQVSLTCLVKGFYPSDIAVEWESNGQPENNYKTTPPVLDSDGSFFLYSKLTVDKSRWQQGNVFSCSVMHEALHNHYTQESLSLSP
chain 2: not shown
For the molecule B7, the equilibrium dissociation constant (Kd) in the test with human FcγRIIa R131 worked out at 250 nM; with human FcγRIIIa V158 it was 40000 nM; with human FcγRIa, 3.9 nM; with human FcγRIIb it was 6.6 nM; in the test with human FcγRIIa H131, 5400 nM.

B8: IL6R-BP488 (antibody)
chain 1: QVQLQESGPGLVKPSETLSLTCAVSGHSISHDHAWSWVRQPPGEGLEWIGFISYSGITNYNPSLQGRVTISRDNSKNTLYLQMNSLRAEDTAVYYCARSLARTTAMDYWGEGTLVTVSSASTKGPSVFPLAPSSKSTSGGTAALGCLVKDYFPEPVTVSWNSGALTSGVHTFPAVLQSSGLYSLSSVVTVPSSSLGTQTYICNVNHKPSNTKVDKKVEPKSCDKTHTCPPCPAPDLLGDDSVFLFPPKPKDTLMISRTPEVTCVVIDVAEEDGEVKFNWYVDGVEVHNAKTKPREEQDNSTYRVVSVLTVLHQDWLNGKEYKCKVSNKALPRPIEKTISKAKGQPREPQVYTLPPSRDELTKNQVSLTCLVKGFYPSDIAVEWESNGQPENNYKTTPPVLDSDGSFFLYSKLTVDKSRWQQGNVFSCSVMHEALHNHYTQESLSLSP
chain 2: not shown
As to B8, the Kd is 74 nM with human FcγRIIa R131; 20000 nM in the test with human FcγRIIIa V158; 2.2 nM with human FcγRIa; 1.9 nM in the test with human FcγRIIb; 1600 nM in the test with human FcγRIIa H131.

B9: IL6R-BP269 (antibody)
chain 1: QVQLQESGPGLVKPSETLSLTCAVSGHSISHDHAWSWVRQPPGEGLEWIGFISYSGITNYNPSLQGRVTISRDNSKNTLYLQMNSLRAEDTAVYYCARSLARTTAMDYWGEGTLVTVSSASTKGPSVFPLAPSSKSTSGGTAALGCLVKDYFPEPVTVSWNSGALTSGVHTFPAVLQSSGLYSLSSVVTVPSSSLGTQTYICNVNHKPSNTKVDKKVEPKSCDKTHTCPPCPAPELLGDDSVFLFPPKPKDTLMISRTPEVTCVVVDVSEEDGEVKFNWYVDGVEVHNAKTKPREEQDNSTYRVVSVLTVLHQDWLNGKEYKCKVSNKALPAPIEKTISKAKGQPREPQVYTLPPSRDELTKNQVSLTCLVKGFYPSDIAVEWESNGQPENNYKTTPPVLDSDGSFFLYSKLTVDKSRWQQGNVFSCSVMHEALHNHYTQESLSLSP
chain 2: not shown
B9: the Kd amounted to 2200 nM with human FcγRIIa R131; 140000 nM with human FcγRIIIa V158; 14 nM in the test with human FcγRIa; 110 nM with human FcγRIIb; 72000 nM with human FcγRIIa H131.

In general, Kd refers to the concentration at which binding is half-saturated. Low readings indicate tighter binding, high ones weaker binding.
